Laboratory results published in patent US9605283B2, “Microorganism modified for the production of 1,3-propanediol” (INSTITUT NATIONAL DES SCIENCES APPLIQUÉES, priority 2012, dated 2017).
Where a chain is given by its changes, count along the chain named. Names and notes keep the numbering of the source.

Assays:
[1] = substrate: O=C(O)[C@@H](O)CCO; test: purified protein, by the assay type; type: biochemical, Escherichia coli MG1655; details: other: 37° C., pH 7, 0.06 mM DCIP
Method: (§1) Ligation products were transformed into E. coli DH5α cells.
(§2) Activity of the membrane-associated DHB dehydrogenase (Ec-LldD) was assayed by following the DHB-dependent reduction of 2,6-dichloroindophenol (DCIP). (L)-2,4-dihydroxybutyrate+DCIPox→2-oxo-4-hydroxybutyrate+DCIPred Reaction scheme 2:
(§3) Reactions were started by adding 20 mM (L)-2,4-dihydroxybutyrate (Rhodia).

[2] = substrate: C[C@H](O)C(=O)O; test: purified protein, by the assay type; type: biochemical, Escherichia coli MG1655; details: other: 37° C., pH 7, DCIP reduction
Method: as §1, §2, §3

[3] = substrate: O=C(O)[C@@H](O)CCO; test: purified protein, by the assay type; type: biochemical, Escherichia coli; details: other: 37° C., pH 7, 0.06 mM DCIP
Method: as §2, §3
(§4) Site-directed mutagenesis of the E. coli lldD gene was carried out using the oligonucleotide pairs listed in Table 5 and the pET28-Ec-lldD plasmid as the template.

[4] = substrate: C[C@H](O)C(=O)O; test: purified protein, by the assay type; type: biochemical, Escherichia coli; details: other: 37° C., pH 7, DCIP reduction
Method: as §2, §3, §4

[5] = substrate: O=C(O)C[C@H](O)C(=O)O; test: purified protein, by the assay type; type: biochemical, Bacillus subtilis strain 168; details: other: 37° C., pH 8, NAD
Description: as §1

[6] = substrate: O=C(O)[C@@H](O)CCO; test: cells, lysate or membranes named; type: biochemical, Bacillus subtilis; details: other: 37° C., pH 8, 10 mM NAD
Method: (§5) Site-directed mutagenesis of the E. coli mdh and the B. subtilis mdh genes were carried out using the oligonucleotide pairs listed in Table 3 and the pET28-Ec-mdh and the pET28-Bs-mdh plasmids as the templates. Point mutations to change the amino acid sequence were introduced by PCR (Phusion 1U, HF buffer 20% (v/v), dNTPs 0.2 mM, direct and reverse primers 0.04 μM each, template plasmid 50 ng, water) using the oligonucleotide pairs listed in Table 3. Mutated genes contained a new restriction site listed in Table 3 (introduced using silent mutations) in addition to the functional mutation to facilitate identification of mutated clones. The PCR products were digested by DpnI at 37° C. for 1 h to remove template DNA, and transformed into competent E. coli DH5-alpha cells (NEB). The mutated plasmids were identified by restriction site analysis and verified to carry the desired mutations by DNA sequencing.
(§6) Mutant enzymes were expressed, purified and tested for DHB dehydrogenase activity as described in Example 1.

[7] = substrate: O=C(O)C[C@H](O)C(=O)O; test: cells, lysate or membranes named; type: biochemical, Bacillus subtilis; details: other: 37° C., pH 8, NAD
Method: as §5, §6

[8] = substrate: O=C(O)C[C@H](O)C(=O)O; test: purified protein, by the assay type; details: other: 37° C., pH 8, NAD
[9] = substrate: O=C(O)C[C@H](O)C(=O)O; test: cells, lysate or membranes named; details: other: 37° C., pH 8, NAD
[10] = substrate: O=C(O)[C@@H](O)CCO; test: cells, lysate or membranes named; type: biochemical, Escherichia coli; details: other: 37° C., pH 8, 10 mM NAD
Method: Activity of the cytosolic DHB dehydrogenases (Ec-Mdh, Bs-Mdh, Ll-LdhA) was assayed by following the DHB-dependent reduction of NAD^+.
The reaction mixture contained 60 mM Hepes (pH 8), 50 mM potassium chloride, 5 mM MgCl2, 10 mM NAD, (optionally, 5 mM fructose-1,6-bisphosphate (F16bP)) (all products from Sigma), and appropriate amounts of purified enzyme or cell extract. Reactions were started by adding 50 mM (L)-2,4-dihydroxybutyrate (Rhodia).
All enzymatic assays were carried out at 37° C. in 96-well flat bottomed microtiter plates in a final volume of 250 μL.

[11] = substrate: CC(=O)C(=O)O; test: OHB decarboxylase / pyruvate decarboxylase kinetics, Zm-Pdc wild type; type: biochemical, Zymomonas mobilis; details: other: 37° C., pH 7, coupled to yeast alcohol dehydrogenase/NADH
Description: (§7) Genomic DNAs of S. cerevisiae BY4741, and Z. mobilis (Lindner) Kluyver and van Niel (ATCC® 31821) were used as the template. […] Ligation products were transformed into competent E. coli DH5α cells (NEB). […] The corresponding protein sequences are represented by SEQ No. 208 and SEQ ID No. 208 128 respectively.
(§8) The plasmids were used to transform E. coli BL21 (DE3) star cells and the enzymes carrying an N-terminal hexa-His tag were expressed and purified as described in Example 1. Decarboxylase activity on 2-oxo-4-hydroxybutyrate (OHB), pyruvate (Sigma), and 4-methyl-2-oxovaleric acid (Sigma) was quantified.
(§9) OHB decarboxylase activity was assayed by coupling the decarboxylase activity to the NADPH-dependent reduction of the released 3-hydroxypropanal by purified aldehyde reductase, YqhD, from E. coli. The decarboxylation of pyruvate was coupled to the NADH-dependent reduction of acetaldehyde catalysed by yeast alcohol dehydrogenase. Branched-chain alpha-ketoacid decarboxylase activity was measured on 4-methyl-2-oxovaleric acid by coupling to the NADH-dependent reduction of 3-methylbutanal catalysed by horse liver alcohol dehydrogenase. […] Reactions were started by adding 20 mM 2-oxo-4-hydroxybutyrate (OHB), 10 mM 4-methyl-2-oxovaleric acid (MOV), or 5 mM pyruvate.

[12] = substrate: O=C(O)C(=O)CCO; test: as above; type: biochemical, Zymomonas mobilis; details: other: 37° C., pH 7, coupled to E. coli YqhD/NADPH
Description: as §7, §8, §9

[13] = substrate: C[C@H](O)C(=O)O; test: purified protein, by the assay type; details: other: 37° C., pH 8, NAD, optionally 5 mM fructose-1,6-bisphosphate

B1: Escherichia coli membrane associated (L)-lactate dehydrogenase Ec-LldD, wild type, SEQ ID No. 122 (Escherichia coli K-12) (protein)
chain: MIISAASDYRAAAQRILPPFLFHYMDGGAYSEYTLRRNVEDLSEVALRQRILKNMSDLSLETTLFNEKLSMPVALAPVGLCGMYARRGEVQAAKAADAHGIPFTLSTVSVCPIEEVAPAIKRPMWFQLYVLRDRGFMRNALERAKAAGCSTLVFTVDMPTPGARYRDAHSGMSGPNAAMRRYLQAVTHPQWAWDVGLNGRPHDLGNISAYLGKPTGLEDYIGWLGNNFDPSISWKDLEWIRDFWDGPMVIKGILDPEDARDAVRFGADGIVVSNHGGRQLDGVLSSARALPAIADAVKGDIAILADSGIRNGLDVVRMIALGADTVLLGRAFLYALATAGQAGVANLLNLIEKEMKVAMTLTGAKSISEITQDSLVQGLGKELPAALAPMAKGNAA
notes: hexa-His (N); made in house; host or cells: E. coli BL21 (DE3) star
With B1 the Km [1] was 1.31 mM and the Km [2] was 0.13 mM.

B2: Escherichia coli (L)-lactate dehydrogenase Ec-LldD variant V108C, SEQ ID No. 174 (Escherichia coli K-12; V108C) (protein)
chain: B1 chain with V108C
notes: DCIP assay
In the case of B2, the Km [3] is reported as 0.85 mM and the Km [4] is reported as 0.42 mM.

B3: Bacillus subtilis (L)-malate dehydrogenase Bs-Mdh, wild type, SEQ ID No. 126 (Bacillus subtilis subsp. subtilis str. 168) (protein)
chain: MGNTRKKVSVIGAGFTGATTAFLIAQKELADVVLVDIPQLENPTKGKALDMLEASPVQGFDAKITGTSNYEDTAGSDIVVITAGIARKPGMSRDDLVSTNEKIMRSVTQEIVKYSPDSIIVVLTNPVDAMTYAVYKESGFPKERVIGQSGVLDTARFRTFVAEELNLSVKDVTGFVLGGHGDDMVPLVRYSYAGGIPLETLIPKERIDAIVERTRKGGGEIVNLLGNGSAYYAPAASLTEMVEAILKDQRRVLPTIAYLEGEYGYEGIYLGVPTIVGGNGLEQIIELELTDYERAQLNKSVESVKNVMKVLS
notes: as for B1
B3 showed a Km [5] of 2.6 mM.

B4: Bacillus subtilis malate dehydrogenase Bs-Mdh variant R87C, SEQ ID No. 154 (Bacillus subtilis subsp. subtilis str. 168; R87C) (protein)
chain: B3 chain with R87C
Work on B4 yielded a Km [6] of 5.4 mM and a Km [7] of 6.8 mM.

B5: Escherichia coli (L)-malate dehydrogenase Ec-Mdh, wild type, SEQ ID No. 124 (Escherichia coli K-12) (protein)
chain: MKVAVLGAAGGIGQALALLLKTQLPSGSELSLYDIAPVTPGVAVDLSHIPTAVKIKGFSGEDATPALEGADVVLISAGVARKPGMDRSDLFNVNAGIVKNLVQQVAKTCPKACIGIITNPVNTTVAIAAEVLKKAGVYDKNKLFGVTTLDIIRSNTFVAELKGKQPGEVEVPVIGGHSGVTILPLLSQVPGVSFTEQEVADLTKRIQNAGTEVVEAKAGGGSATLSMGQAAARFGLSLVRALQGEQGVVECAYVEGDGQYARFFSQPLLLGKNGVEERKSIGTLSAFEQNALEGMLDTLKKDIALGEEFVNK
With B5 the Km [8] was 0.56 mM.

B6: Escherichia coli malate dehydrogenase Ec-Mdh variant R81A M85E, SEQ ID No. 160 (Escherichia coli K-12; M85E/R81A) (protein)
chain: B5 chain with R81A, M85E
With B6 the Km [9] was 8.6 mM and the Km [10] was 48 mM.

B7: Escherichia coli malate dehydrogenase Ec-Mdh variant R81A M85E I12V, SEQ ID No. 166 (Escherichia coli K-12; I12V/M85E/R81A) (protein)
chain: B5 chain with I12V, R81A, M85E
Protein B7 has a Km [9] of 11.2 mM and a Km [10] of 20 mM.

B8: Escherichia coli malate dehydrogenase Ec-Mdh variant R81A D86S, SEQ ID No. 170 (Escherichia coli K-12; D86S/R81A) (protein)
chain: B5 chain with R81A, D86S
B8 was tested, and the Km [9] was 10.3 mM and the Km [10] was 28 mM.

B9: Escherichia coli malate dehydrogenase Ec-Mdh variant R81A I12V, SEQ ID No. 162 (Escherichia coli K-12; I12V/R81A) (protein)
chain: B5 chain with I12V, R81A
With B9 the Km [9] was 8.5 mM.

B10: Escherichia coli malate dehydrogenase Ec-Mdh variant R81A M85Q, SEQ ID No. 158 (Escherichia coli K-12; M85Q/R81A) (protein)
chain: B5 chain with R81A, M85Q
Work on B10 yielded a Km [9] of 2.2 mM and a Km [10] of 29 mM.

B11: Escherichia coli malate dehydrogenase Ec-Mdh variant R81A, SEQ ID No. 156 (Escherichia coli K-12; R81A) (protein)
chain: B5 chain with R81A
Protein B11 has a Km [9] of 0.7 mM and a Km [10] of 33 mM.

B12: Escherichia coli malate dehydrogenase Ec-Mdh variant R81A M85Q I12V, SEQ ID No. 164 (Escherichia coli K-12; I12V/M85Q/R81A) (protein)
chain: B5 chain with I12V, R81A, M85Q
B12 gave a Km [9] of 12.5 mM and a Km [10] of 19 mM.

B13: Zymomonas mobilis pyruvate decarboxylase Zm-Pdc, wild type, SEQ ID No. 128 (Zymomonas mobilis subsp. mobilis ZM4 = ATCC 31821) (protein)
chain: MSYTVGTYLAERLVQIGLKHHFAVAGDYNLVLLDNLLLNKNMEQVYCCNELNCGFSAEGYARAKGAAAAVVTYSVGALSAFDAIGGAYAENLPVILISGAPNNNDHAAGHVLHHALGKTDYHYQLEMAKNITAAAEAIYTPEEAPAKIDHVIKTALREKKPVYLEIACNIASMPCAAPGPASALFNDEASDEASLNAAVEETLKFIANRDKVAVLVGSKLRAAGAEEAAVKFADALGGAVATMAAAKSFFPEENPHYIGTSWGEVSYPGVEKTMKEADAVIALAPVFNDYSTTGWTDIPDPKKLVLAEPRSVVVNGIRFPSVHLKDYLTRLAQKVSKKTGALDFFKSLNAGELKKAAPADPSAPLVNAEIARQVEALLTPNTTVIAETGDSWFNAQRMKLPNGARVEYEMQWGHIGWSVPAAFGYAVGAPERRNILMVGDGSFQLTAQEVAQMVRLKLPVIIFLINNYGYTIEVMIHDGPYNNIKNWDYAGLMEVFNGNGGYDSGAGKGLKAKTGGELAEAIKVALANTDGPTLIECFIGREDCTEELVKWGKRVAAANSRKPVNKLL
notes: as for B1
With B13 the Km [11] was 2.5 mM and the Km [12] was 1.5 mM.

B14: Lactococcus lactis (L)-lactate dehydrogenase Ll-LdhA, wild type, SEQ ID No. 120 (Lactococcus lactis subsp. lactis Il1403) (protein)
chain: MADKQRKKVILVGDGAVGSSYAFALVNQGIAQELGIVDLFKEKTQGDAEDLSHALAFTSPKKIYSADYSDASDADLVVLTSGAPQKPGETRLDLVEKNLRITKDVVTKIVASGFKGIFLVAANPVDILTYATWKFSGFPKNRVVGSGTSLDTARFRQALAEKVDVDARSIHAYIMGEHGDSEFAVWSHANVAGVKLEQWFQENDYLNEAEIVELFESVRDAAYSIIAKKGATFYGVAVALARITKAILDDEHAVLPVSVFQDGQYGVSDCYLGQPAVVGAEGVVNPIHIPLNDAEMQKMEASGAQLKAIIDEAFAKEEFASAVKN
For B14, the Km [13] was 21.2 mM.
